The values below come from the supplement of paper PMC9112550, “Optimization of the antimicrobial peptide Bac7 by deep mutational scanning” (BMC Biology, 2022).

This data set relates to Escherichia coli TOP10. Put plainly: shrunken log2 fold change of peptide-encoding DNA abundance (4.5 h post-induction vs induction); higher = less antimicrobial activity (less host growth inhibition). Particulars: time post-induction: 4.5 h; library: site-saturation at positions 5, 18, 19, 20.
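Further: peptides expressed intracellularly from a pBAD plasmid library in pooled LB shake-flask culture, induced with 0.3% L-arabinose, DNA abundance read by NGS, three biological replicates, DESeq2 with apeglm shrinkage.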

RRIRWRPPRLPRPRPRPWLMPRP: the “shrunken log2 fold change” value stood at 0.116.

Take RRIRPRPPRLPRPRPRPKFGPRP: the “shrunken log2 fold change” value was -0.0973.

For RRIRNRPPRLPRPRPRPEGDPRP, the “shrunken log2 fold change” value is -0.043.

As to RRIRMRPPRLPRPRPRPGKNPRP, the “shrunken log2 fold change” value came out at 0.417.

Turning to RRIRKRPPRLPRPRPRPTKPPRP, the “shrunken log2 fold change” value came out at 0.221.

RRIRARPPRLPRPRPRPMVAPRP: the “shrunken log2 fold change” value came out at 0.676.

Regarding RRIRPRPPRLPRPRPRPFICPRP, the “shrunken log2 fold change” value is -0.276.

In the case of RRIRARPPRLPRPRPRPDPHPRP, the “shrunken log2 fold change” value is 0.373.

RRIRFRPPRLPRPRPRPSQPPRP: the “shrunken log2 fold change” value was -0.0776.

With RRIRRRPPRLPRPRPRPSQQPRP, the “shrunken log2 fold change” value was -0.0599.

In the case of RRIRSRPPRLPRPRPRPRPEPRP, the “shrunken log2 fold change” value was 0.507.

For the sequence RRIRNRPPRLPRPRPRPISPPRP, the “shrunken log2 fold change” value was -0.13.

As for RRIRQRPPRLPRPRPRPSYMPRP, the “shrunken log2 fold change” value is -0.301.

Take RRIRRRPPRLPRPRPRPHWDPRP: the “shrunken log2 fold change” value is -0.0203.

Consider RRIRTRPPRLPRPRPRPFSPPRP, for which the “shrunken log2 fold change” value was -0.375.

In the case of RRIRRRPPRLPRPRPRPLQDPRP, the “shrunken log2 fold change” value amounted to 0.0495.

For RRIRQRPPRLPRPRPRPFEHPRP, the “shrunken log2 fold change” value was -0.00133.

With RRIRERPPRLPRPRPRPMVTPRP, the “shrunken log2 fold change” value is -0.0939.

Take RRIRYRPPRLPRPRPRPPGMPRP: the “shrunken log2 fold change” value was 0.0171.

In the case of RRIRPRPPRLPRPRPRPECIPRP, the “shrunken log2 fold change” value is -0.0733.

With RRIRRRPPRLPRPRPRPNKPPRP, the “shrunken log2 fold change” value is 0.101.

Regarding RRIRARPPRLPRPRPRPGYKPRP, the “shrunken log2 fold change” value was -0.268.

Regarding RRIRNRPPRLPRPRPRPAVIPRP, the “shrunken log2 fold change” value is -0.277.

In the case of RRIRNRPPRLPRPRPRPDWFPRP, the “shrunken log2 fold change” value was -0.0803.

For RRIRHRPPRLPRPRPRPRYYPRP, the “shrunken log2 fold change” value is -0.332.

Turning to RRIRIRPPRLPRPRPRPRKRPRP, the “shrunken log2 fold change” value came out at 0.178.

Consider RRIRGRPPRLPRPRPRPWMIPRP, for which the “shrunken log2 fold change” value is 0.268.

Regarding RRIRKRPPRLPRPRPRPAHMPRP, the “shrunken log2 fold change” value was determined as 0.686.

Turning to RRIRHRPPRLPRPRPRPTKDPRP, the “shrunken log2 fold change” value is -0.154.

As to RRIRMRPPRLPRPRPRPEHNPRP, the “shrunken log2 fold change” value amounted to 0.465.

As for RRIRWRPPRLPRPRPRPHRRPRP, the “shrunken log2 fold change” value was -0.0988.

Consider RRIRCRPPRLPRPRPRPLIYPRP, for which the “shrunken log2 fold change” value is -0.764.

In the case of RRIRPRPPRLPRPRPRPLIIPRP, the “shrunken log2 fold change” value was -0.605.

With RRIRVRPPRLPRPRPRPMLGPRP, the “shrunken log2 fold change” value is -0.0049.

Take RRIRARPPRLPRPRPRPINWPRP: the “shrunken log2 fold change” value was determined as 0.139.

With RRIRDRPPRLPRPRPRPFCQPRP, the “shrunken log2 fold change” value was -0.00439.

For RRIRMRPPRLPRPRPRPEIKPRP, the “shrunken log2 fold change” value was found to be 3.3.

Turning to RRIRTRPPRLPRPRPRPYFMPRP, the “shrunken log2 fold change” value is -0.836.

In the case of RRIRERPPRLPRPRPRPIECPRP, the “shrunken log2 fold change” value is -0.339.

Regarding RRIRIRPPRLPRPRPRPEGRPRP, the “shrunken log2 fold change” value was -0.0382.

For RRIRVRPPRLPRPRPRPTSVPRP, the “shrunken log2 fold change” value is -0.0603.

On to RRIRKRPPRLPRPRPRPEYKPRP, for which the “shrunken log2 fold change” value came to 0.0908.

Consider RRIRGRPPRLPRPRPRPNSYPRP, for which the “shrunken log2 fold change” value is -0.0855.

As for RRIRCRPPRLPRPRPRPNRNPRP, the “shrunken log2 fold change” value is -0.562.

As to RRIRERPPRLPRPRPRPIFWPRP, the “shrunken log2 fold change” value was 0.167.

Turning to RRIRKRPPRLPRPRPRPHWNPRP, the “shrunken log2 fold change” value is -0.296.

As for RRIRCRPPRLPRPRPRPEAKPRP, the “shrunken log2 fold change” value stood at 0.208.

RRIRKRPPRLPRPRPRPRIMPRP: the “shrunken log2 fold change” value turned out to be 0.0472.

RRIRIRPPRLPRPRPRPPWEPRP: the “shrunken log2 fold change” value is -0.21.

RRIRERPPRLPRPRPRPDDNPRP: the “shrunken log2 fold change” value stood at 0.0486.

With RRIRWRPPRLPRPRPRPITAPRP, the “shrunken log2 fold change” value stood at 0.0334.

Regarding RRIRKRPPRLPRPRPRPKCFPRP, the “shrunken log2 fold change” value came out at 0.00084.

On to RRIRSRPPRLPRPRPRPEYTPRP, for which the “shrunken log2 fold change” value is -0.0105.

As to RRIRYRPPRLPRPRPRPLYIPRP, the “shrunken log2 fold change” value was -0.999.

Consider RRIRERPPRLPRPRPRPHVAPRP, for which the “shrunken log2 fold change” value is 0.0131.

For RRIRQRPPRLPRPRPRPNMRPRP, the “shrunken log2 fold change” value came to 0.121.

With RRIRWRPPRLPRPRPRPREEPRP, the “shrunken log2 fold change” value was determined as 0.55.

Take RRIRSRPPRLPRPRPRPNGAPRP: the “shrunken log2 fold change” value was -0.299.

On to RRIRRRPPRLPRPRPRPTNNPRP, for which the “shrunken log2 fold change” value is -0.0392.

With RRIRCRPPRLPRPRPRPVPEPRP, the “shrunken log2 fold change” value stood at 0.316.

On to RRIRVRPPRLPRPRPRPMHCPRP, for which the “shrunken log2 fold change” value was -0.00923.

RRIRVRPPRLPRPRPRPCRPPRP: the “shrunken log2 fold change” value was determined as 0.00447.

For the sequence RRIRIRPPRLPRPRPRPRDQPRP, the “shrunken log2 fold change” value was -0.0489.

Turning to RRIRDRPPRLPRPRPRPYTHPRP, the “shrunken log2 fold change” value was -0.267.

Regarding RRIRARPPRLPRPRPRPVVDPRP, the “shrunken log2 fold change” value was determined as 0.399.

For the sequence RRIRKRPPRLPRPRPRPPWEPRP, the “shrunken log2 fold change” value was 1.23.

Turning to RRIRCRPPRLPRPRPRPDKEPRP, the “shrunken log2 fold change” value was -0.00172.

For the sequence RRIRSRPPRLPRPRPRPHGDPRP, the “shrunken log2 fold change” value came out at 0.043.

In the case of RRIRSRPPRLPRPRPRPHNHPRP, the “shrunken log2 fold change” value is -0.576.

For the sequence RRIRQRPPRLPRPRPRPEKDPRP, the “shrunken log2 fold change” value was 0.343.

Regarding RRIRVRPPRLPRPRPRPPHLPRP, the “shrunken log2 fold change” value is -0.0283.

Regarding RRIRERPPRLPRPRPRPWNKPRP, the “shrunken log2 fold change” value was -0.286.

As for RRIRMRPPRLPRPRPRPLMHPRP, the “shrunken log2 fold change” value stood at 0.341.

As to RRIRTRPPRLPRPRPRPAALPRP, the “shrunken log2 fold change” value was found to be 0.0806.

In the case of RRIRIRPPRLPRPRPRPDTAPRP, the “shrunken log2 fold change” value was -0.232.

In the case of RRIRLRPPRLPRPRPRPKKPPRP, the “shrunken log2 fold change” value stood at 0.0873.

Turning to RRIRWRPPRLPRPRPRPFHQPRP, the “shrunken log2 fold change” value was -0.259.

For RRIRHRPPRLPRPRPRPSDWPRP, the “shrunken log2 fold change” value is -0.327.

For RRIRIRPPRLPRPRPRPTAQPRP, the “shrunken log2 fold change” value worked out at 0.154.

Take RRIRKRPPRLPRPRPRPMSMPRP: the “shrunken log2 fold change” value was determined as 0.0472.

Take RRIRGRPPRLPRPRPRPYAEPRP: the “shrunken log2 fold change” value was determined as 1.19.

Consider RRIRARPPRLPRPRPRPITKPRP, for which the “shrunken log2 fold change” value was -0.0507.

As to RRIRYRPPRLPRPRPRPSYGPRP, the “shrunken log2 fold change” value is -0.383.

Turning to RRIRARPPRLPRPRPRPHPFPRP, the “shrunken log2 fold change” value is 0.0322.

Turning to RRIRVRPPRLPRPRPRPCRVPRP, the “shrunken log2 fold change” value is 0.00617.

Take RRIRKRPPRLPRPRPRPEAMPRP: the “shrunken log2 fold change” value is 0.0888.

For RRIRSRPPRLPRPRPRPYMQPRP, the “shrunken log2 fold change” value is -0.145.

RRIRKRPPRLPRPRPRPYYTPRP: the “shrunken log2 fold change” value is -0.34.

Take RRIRERPPRLPRPRPRPNMDPRP: the “shrunken log2 fold change” value was -0.209.

Regarding RRIRWRPPRLPRPRPRPWERPRP, the “shrunken log2 fold change” value amounted to 0.142.

With RRIRGRPPRLPRPRPRPNRQPRP, the “shrunken log2 fold change” value was found to be 0.167.
